The assay has as its target Drosophila Nfs1^Δ1–53/Isd11/IscU complex (Drosophila melanogaster, UniProt Q9VKD3 54-462; O46098 1-92; Q9VHK6 1-154). Nature of the assay: cell-based or functional assay.

Drosophila Nfs1^Δ1–53/Isd11/IscU complex, sequence (Q9VKD3 54-462, stated change not applied, chain 1 of 3): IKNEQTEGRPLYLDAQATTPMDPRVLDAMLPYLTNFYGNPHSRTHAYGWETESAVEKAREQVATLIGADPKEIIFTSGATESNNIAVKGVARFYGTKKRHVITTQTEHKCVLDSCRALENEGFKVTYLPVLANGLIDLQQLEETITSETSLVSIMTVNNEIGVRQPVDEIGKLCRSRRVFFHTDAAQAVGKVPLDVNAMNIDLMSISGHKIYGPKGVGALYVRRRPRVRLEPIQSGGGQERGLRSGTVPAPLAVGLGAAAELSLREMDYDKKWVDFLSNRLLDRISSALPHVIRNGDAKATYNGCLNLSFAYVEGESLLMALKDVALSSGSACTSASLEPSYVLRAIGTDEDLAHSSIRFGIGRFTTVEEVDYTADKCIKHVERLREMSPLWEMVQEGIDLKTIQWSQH
Drosophila Nfs1^Δ1–53/Isd11/IscU complex, sequence (O46098 whole entry, stated change not applied, chain 2 of 3): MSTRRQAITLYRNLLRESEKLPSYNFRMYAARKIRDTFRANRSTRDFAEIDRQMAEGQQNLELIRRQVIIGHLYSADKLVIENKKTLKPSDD
Drosophila Nfs1^Δ1–53/Isd11/IscU complex, sequence (Q9VHK6 whole entry, stated change not applied, chain 3 of 3): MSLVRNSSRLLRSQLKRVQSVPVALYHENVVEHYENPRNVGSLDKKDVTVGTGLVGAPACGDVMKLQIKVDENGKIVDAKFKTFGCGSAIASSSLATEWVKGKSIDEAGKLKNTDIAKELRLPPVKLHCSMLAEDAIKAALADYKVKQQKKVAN

B1: human frataxin (FXN) (natural protein, UniProt Q16595 42-210, looked up)
chain: LRTDIDATCTPRRASSNQRGLNQIWNVKKQSVYLMNLRKSGTLGHPGSLDETTYERLAEETLDSLAEFFEDLADKPYTFEDYDVSFGSGVLTVKLGGDLGTYVINKQTPNKQIWLSSPSSGPKRYDWTGKNWVYSHDGVSLHELLAAELTKALKTKLDLSSLAYSGKDA
Consider B1, for which the “L-cysteine desulfurase activity (total sulfide produced, methylene blue) of the IscU/Nfs1^Δ1–53/Isd11 complex on addition of human frataxin, 1:3 [Nfs1]:[FXN], anaerobic, 10 min at 23°C” value was determined as 6 fold.

The values above are taken from paper PMC5817353, “Iron Sulfur and Molybdenum Cofactor Enzymes Regulate the Drosophila Life Cycle by Controlling Cell Metabolism” (Frontiers in Physiology, 2018).
